Experiment: soluble on expression in E. coli; label from the status in PepcDB or PDB records
In the case of “MGSDKIHHHHHHMVRVRFAPSPTGFLHVGGARTALFNFLFARKEKGKFILRIEDTDLERSEREYEEKLMESLRWLGLLWDEGPDVGGDHGPYRQSERVEIYREHAERLVKEGKAYYVYAYPEEIEEMREKLLSEGKAPHYSQEMFEKFDTPERRREYEEKGLRPAVFFKMPRKDYVLNDVVKGEVVFKTGAIGDFVIMRSNGLPTYNFACVVDDMLMEITHVIRGDDHLSNTLRQLALYEAFEKAPPVFAHVSTILGPDGKKLSKRHGATSVEAFRDMGYLPEALVNYLALLGWSHPEGKELLTLEELISSFSLDRLSPNPAIFDPQKLKWMNGYYLRNMPIEKLAELAKPFFEKAGIKIIDEEYFKKVLEITKERVEVLSEFPEESRFFFEDPAPVEIPEEMKEVFSQLKEELQNVRWTMEEITPVFKKVLKQHGVKPKEFYMTLRRVLTGREEGPELVNIIPLLGKEIFLRRIERSLGG”, the “soluble on expression in E. coli” value is reported as “soluble”.
With “MGSDKIHHHHHHMRRCPLCTSEETAPFYQDRKRCIYRCKRCMLLFADANSHLPPSAEVKRYRSANSKDKPLQQFLSSLITQCEQQVQGPLLGLNFGRLLNPQAIDAIKARGHQLNQYDPHFAPDHTLLRLEYDFICCYRVFEHFRFPGKEWQLLCSLLKPGGWMAISTQLLTELQGFPKWHHKNNLTHVSFYQQATFQYLASQAEFRLLFASKDLILVQKPTGSGITRDPSSLI” the “soluble on expression in E. coli” value was “not soluble”.
In the case of “MGSDKIHHHHHHAERISFFYPPFGEFSLSVDSLETFAKVGKIDRDFSFYASRATPQQLAQLRDLLQQRFNLTPTLVSQVTYSPIGEQLVQQLGKLLLTESRQNGFYAIRASLILAAADREGLTVVNLLRKFPSNTVRVNFTEGLRIVDDLSQLLKKKDEVVASLQKEAIAQAANSTVDFSKQPDLRSPGKFRWLKKSLELNDISRSRRLPVDIYLPTTQNSEPTDQNSPSPPFPLIVISHGLASDRSTFVYLAEHLASYGFAVAVLEHPGSNAKRFQEYFAGLASPPEPEEFIDRPLDIKYLLDELQRLEKSDPSLHGKLNFQQVGAIGQSFGGYTVLTLAGAKINFEQLRQDCNPNNSSFNLSLLLQCEASKLPQKNYELKDDRIKAIMAINPIDSLVLGEGGVSQIKMPVMLVAGSQDIFAPPVFEQIRPFTWLSDPNKYLALIENATHFSAIAEPTPENDVLPVPPALLGPDRDAVYSYLNALSVAFMETHLLNRPEYRSYLQPSYATFISKEPLNLSILQSLSVAQFNQIWSASIPQSAKLSNPQPTPR”, the “soluble on expression in E. coli” value is reported as “not soluble”.
In the case of “GPGSMASKKGGKKANGEDLEAAILRWFECEGEPATVQSLTDALGSKFGKQLVQNTLEQCLKEQKLLAKDIKKARFYFLASPAPGSNDEGSDVGSHKIDIVKQLRQLRNGVSMLSSELSVLLQAQTSSKRATTIASLVSECAALRSRLQALHVIAGKESSCVSDDVSLLIHRYKRARELWRDRKRITVCVIDAVLGDSCGPQELEDIFGLSTDEQMNLCLSGTALTLPATVSS”, the “soluble on expression in E. coli” value is reported as “not soluble”.
For “VLQTRNYTCGPAALATVLQRLGVNTTEDELAGLAGTTEEGTTMQGLLEASRAKGMNATGMKLNISELKENMIAYTINDGTGHYTVINEITNDTIKLADPSLGNIEMNIEEFAEIYSGYTLVI”, the “soluble on expression in E. coli” value was “soluble”.
With “MHHHHHHSSGVDLGTENLYFQSNAMKNIEKLEQSLTYEFKDKNLLIHALTHKSFKKSYNNERLEFLGDAVLDLVVGEYLFHKFAKDAEGDLSKLRAALVNEKSFAKIANSLNLGDFILMSVAEENNGGKEKPSILSDALEAIIGAIHLEAGFEFAKTIALRLIEKNFPQIDAKILIKDYKTKLQEITQGKIGQTPQYETVRAFGPDHLKQFEIALMLDGKELARAIAGSKKEAQQMAAKIALEKLGAL” the “soluble on expression in E. coli” value was “soluble”.
In the case of “SLAAVQVVGSWPSVQPREAPREAIPERGNGFRLLSARLCALRPDDSSSARTEIHLLFDQLISENYSEGSGVAPEDVSALLVQACRLVPLNQNHLVSKVSQLIHHLLNRLQVIVDEQHLDFLLAYTISAIHQCSSWTHREILQALAALVYCNGSKCQKYLPELLGNTGLLMKLSDLAQSDPEVRRAAVHCMANLCLSVPGQPYLEEPYQNVCFQAFLTILQSPKSSDMDDITFCMLLQNALKGIQSLLNGGRMKLTQTDELGALLAVLKKFMFHGLPGLNIEMPTVLYPTPLPQYDGRTPIK”, the “soluble on expression in E. coli” value is reported as “soluble”.
With “PVPATPILQLEECCTHNNSATLSWKQPPLSTVPADGYILELDDGNGGQFREVYVGKETMCTVDGLHFNSTYNARVKAFNKTGVSPYSKTLVLQTSEG” the “soluble on expression in E. coli” value was “soluble”.
With “MSLRPRAQTAGTWPRVCIESVTPSVDNGRFPVKRTVGDRICVEADAFCDGHDRIAVAVLWRPADAKAWASAPMRALGNDRWRAEFPLERIGTYEFRVEAWRDVFATLHADLEKKRAANTVLPVDVQEAVAAVQAAQARSDGALAERLQTVLTRIGAQSEPLQQLAIVLEPDTAQAMALADDKPFRSEYPVTFRVESERRAAHFSSWYELFPRSQSGDASRHGTFDDVIKRLPHIRAMNFDVLYMPPIHPIGLNNRKGRNNSVTAVEGEPGSPYAIGATDGGHTEVHAELGGLEGFRRLIEAARAQGLEVALDFAIQCAPDHPWLKEHKDWFTWRADGSIPYAENPPKKYQDIVNVDFYASGAVPDLWNTLRDAVLFWVNEGVTLFRVDNPHTKPFPFWEWLIADVRGRRPDVVFLSEAFTRPKMMYRLAKCGFSQSYTYFTWRNHKHELRAYVEELNDGVPRECFRPHFFVNTPDINPLFLQTSGRNGHLIRAALATTLSGLWGMYQGFELCEATPLAPGKEEYLDSEKFQLRAWPERVPGDIVEEITRFNQLRRMHPELQSHLGTRFYQAHNDQVLYYGKFLDAGYLSRSRSMVLVAINLDPHAGQDADIEIPLWELGLPDHASVAVEDLWDGHRFAWHGKYQHIRLEATRPFALWRIRAGEGHHHHHH” the “soluble on expression in E. coli” value was “soluble”.
For “MSDVDADEARKMAERERKKEEVRKRLEEASRMKKAKKGFLTPERKKKLRKLLMMKAAEDLKQQQMLKEQERQRILQERIIPLPDLDNEDDLEAVYDEIRERLIDLESENYDVSYIVRQKDFEINELTIAVNDLRGKFVKPTLKKVSKTEGKFDKLKKKEATKVDFRAQLKVVDKNEFALDEEDTEKKEKAAWAK”, the “soluble on expression in E. coli” value was “not soluble”.
For “MYTYKIGISPEEHDQFVLAQPQAGLLQSSKWGKVKDNWKHERISFYENGVQVAAAACLIRKLPLGFTMIYIPRGPIMDYANFELLDFVIKTLKTFGKSKRALFIKIDPSLVIKQTLEGKESKENDVTLSIIAFLKKLGVEWSGRTKELEDTIQPRIQANIYAKDFDFDSLPKKAKQSIRTATNKGVNVTIGGSELLDDFSALMKKTENRKGIILRGKSYYQKLLGIYAGQSYITMASLDLPEQKKLLIQQLDKALAEQARLTDKSKPSKVAENQKTIARLQKDLTILSEQLATGQTRIPLAATLTLIYGETSENLYAGMDDDYRNYQAPLLTWYETAKEAFKRGCRWHNLGGVENQQDGGLYHFKARLNPTIEEFAGEFNIPVGLVSSLAILTYNLRKKLRSTTNGTN”, the “soluble on expression in E. coli” value was “not soluble”.
For “MSLSDDPMASIKLLNLERENSAIAQYQSNIANLKTTLSSQETHLDSVNESLKSMRDIVLWGANGSLTDQDRSGMITELKSYRDSIESSFNAQDEEGHFLFSGTKTDTAALNKSSGAYVVEGNSDVRVVTVAKGVTMDSNMTAQEILDIGGGKNVLNQIDALIAEFEKPSPNFQAEVDASLNAIDDTMANVLGAMTEIGGRHNNLDLMDGAHSENKLFVDKVSGDLSALDYGEASVRLSNYMAALQATQASYVKINDLSLFDREGHHHHHH”, the “soluble on expression in E. coli” value was “soluble”.
In the case of “GPGSMTDFPKLNRIKSDDENMEKIHVAARKGQTDEVRRLIETGVSPTIQNRFGCTALHLACKFGCVDTAKYLASVGEVHSLWHGQKPIHLAVMANKTDLVVALVEGAKERGQMPESLLNECDEREVNEIGSHVKHCKGQTALHWCVGLGPEYLEMIKILVQLGASPTAKDKADETPLMRAMEFRNREALDLMMDTVPSKSSLRLDYANKQGNSHLHWAILINWEDVAMRFVEMGIDVNMEDNEHTVPLYLSVRAAMVLLTKELLQKTDVFLIQACPYHNGTTVLPDRVVWLDFVPAAADPSKQEVLQLLQEKLDEVVRSLNTGAGGAVKRKKKAAPAVKRMKLAPSAPVRTRSRSRARSSAVSK”, the “soluble on expression in E. coli” value is reported as “soluble”.
For “MGSDKIHHHHHHMARKDKIVTPSVTQKLQSLGYNVADWDDSKTTSKLTDEIITVLKKASKSENGNEGYPDRIYCNKKKKLLILVEEKPTMQEHNIESIKSGCIAGLKWYLKQFLSEKFSSWKIIGIAVSGDLSDQYKHKFSCFLIDKQKISLAENVNNFLKENEFIALFNNIDEEKAISKVTKVSKKINKLLRSIDSQKRPIILAALMISLYRSEKYDNNFPDIYENYNSEQILNNIYPTVKNILTAEDVPEEKLKSLELELNSINQDPSLKNTNILKEILKELDENIIQLFNDTFSTTSNYDIMGKFYEEFLRFAGVSNVKKGIVLTPRHIATLFTKLIPFKKNDKILDLCCGTGAFLIAGMNKLLSLKGIDAQNVKSNQLLGFEINPTMYICAISNMLFRGDGKSKIYNMDSINDDKVNKIISESAPTIGFINPPYSGKENKEDPTPKEITFLKKC”, the “soluble on expression in E. coli” value was “not soluble”.
For “MSLGAFLDKPKTEKHNAHGAGNGLRYGLSSMQGWRVEMEDAHTAVVGIPHGLEDWSFFAVYDGHAGSRVANYCSTHLLEHITTNEDFRAAGKSGSALELSVENVKNGIRTGFLKIDEYMRNFSDLRNGMDRSGSTAVGVMISPKHIYFINCGDSRAVLYRNGQVCFSTQDHKPCNPREKERIQNAGGSVMIQRVNGSLAVSRALGDYDYKCVDGKGPTEQLVSPEPEVYEILRAEEDEFIILACDGIWDVMSNEELCEYVKSRLEVSDDLENVCNWVVDTCLHKGSRDNMSIVLVCFSNAPKVSDEAVKKDSELDKHLESRVEEIMEKSGEEGMPDLAHVMRILSAENIPNLPPGGGLAGKRNVIEAVYSRLNPHRESDGGAGDLEDEGHHHHHH”, the “soluble on expression in E. coli” value was “soluble”.
In the case of “SNAMSDKFHILLLNGPNLNLLGTREPEKYGYTTLAEIVSQLEIQAQGMDVALSHLQSNAEHALIDSIHQARGNTDFILINPAAFTHTSVALRDALLGVQIPFIEIHLSNVHAREPFRHHSYLSDIAVGVICGLGADGYNFALQAAVNRLSKSN”, the “soluble on expression in E. coli” value is reported as “soluble”.
For “MKQADELRFNEDGLIPAIVQDAASKEVLTLAYMNKESYEKTLETKETWFYSRSRQALWHKGETSGNTQAVKGIRYDCDQDALLVLVEPSGPACHTGSYSCFTKEQTEEQAADRFGIMNELERVIAERQAEMPEGAYTTYLFREGVDKILKKVGEEASEVIIAAKNRDHEELKWEAADLLYHLLVLLREQSLPLDDVLDVLKKRHSEIEELEHHHHHH”, the “soluble on expression in E. coli” value was “not soluble”.
For “MGSDKIHHHHHHMKLLMLCREPRLYSCQRLKESAEDNGHQIDILDPNRCLLKLSKNAPHFELYYQVNSKSEPYLLPDYDAIIPRFGSTSTRMGCAVLRHFRTKNIFCLNDDVAFLKARDKWLSLQLLTEQGIAVPNSALSGAEFSATQAILQIQSPTILKTLHGSQGIGVILAENRKSAVSIMETLTQADVPLLMQDFIQEAQGTDIRCFVIGDKVVATMQRIGQEDEFRANFHRGGSAEKIQLTEQEKVLALKATKCLGLDVAGVDLIRSKQGLLVLEVNASPGLEMIEKTSGIDIALQMIVHIEKQFKR”, the “soluble on expression in E. coli” value was “not soluble”.
For “SLSPKFKTIIIDDIPSCVEDIKKIILKDKRFEVVATASNGLEGVDQIRLHNPDLVLTDIEMPVMNGFDMVIGLREMLDLTPTIIFITVYDQYAIQAIRCSAFDFILKTGLDQELPMALNEYVKKRAAKQPLLSKQIESLIKSFERNKQIIIRSNICDNFINPMDIIYISTSKNHANSIYLKNGECIATNQSLSHFEKILSETDFFRLNKSNIININFIKEIRKETNAFRRKYVYMKYTEADIKLAIPPGKYAKLFDFIEENSSEG”, the “soluble on expression in E. coli” value was “not soluble”.
With “MALVKEVLVVLNRLSPFELQESWDNSGLNVGSENSEFSEIVACLEITLKIALNAPQNALIITHHPLIFKPLKTLNDEIYPGNILKILIQKNVSVISMHTNFDKTHLNKHFAHALLEFDGLVEKGLMLVKENANIEFDALVKKIKSSLGVGSLACVKSSQTIKDLAFVCGSGASMFSSLKAQSCLITGDVKYHDAMIAQSLGISLIDATHYYSERGFALIVAEILHSFNYLVTIENFKNPLQIILEHHHHHH” the “soluble on expression in E. coli” value was “soluble”.

Source: the DeepSol protein solubility set
